Changes are numbered by the printed parent chain.
How the values were obtained:
Test in all cases: ITC; Fep1 (~1.4 mM) injected, 2 µl each time, into Tup11 WT or mutant (~0.2 mM); 25°C; 1×PBS pH 7.4, 150 mM NaCl; iTC200 (MicroCal); Fep1 into buffer subtracted as background
Settings in all cases: both partners purified
[1] = target: T1, S. japonicus Tup11 WD40 domain (301–630) Ile601Ala (S. japonicus, UniProt B6JV84 301-630, Ile601Ala)
T1 construct: Tup11, S. japonicus, WD40 domain, amino acids 301-630
T1 sequence (looked up): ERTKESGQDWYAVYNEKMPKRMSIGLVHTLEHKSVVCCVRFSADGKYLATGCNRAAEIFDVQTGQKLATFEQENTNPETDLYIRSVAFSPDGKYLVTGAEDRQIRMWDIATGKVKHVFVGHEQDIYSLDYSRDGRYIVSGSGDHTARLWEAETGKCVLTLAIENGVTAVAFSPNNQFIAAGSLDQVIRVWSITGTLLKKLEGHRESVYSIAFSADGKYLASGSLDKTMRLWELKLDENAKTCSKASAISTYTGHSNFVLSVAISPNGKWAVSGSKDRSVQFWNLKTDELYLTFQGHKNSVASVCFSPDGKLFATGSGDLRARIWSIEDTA

[2] = target: T2, S. japonicus Tup11 WD40 domain (301–630) Lys575Ala (S. japonicus, UniProt B6JV84 301-630, Lys575Ala)
T2 construct: Tup11, S. japonicus, WD40 domain, amino acids 301-630
T2 sequence (looked up): T1 sequence (looked up) with K275A, A301I

[3] = target: T3, S. japonicus Tup11 WD40 domain (301–630) Phe557Ala (S. japonicus, UniProt B6JV84 301-630, Phe557Ala)
T3 construct: Tup11, S. japonicus, WD40 domain, amino acids 301-630
T3 sequence (looked up): T1 sequence (looked up) with F257A, A301I

[4] = target: T4, S. japonicus Tup11 WD40 domain (301–630) Tyr382Ala (S. japonicus, UniProt B6JV84 301-630, Tyr382Ala)
T4 construct: Tup11, S. japonicus, WD40 domain, amino acids 301-630
T4 sequence (looked up): T1 sequence (looked up) with Y82A, A301I

[5] = target: T5, S. japonicus Tup11 WD40 domain (301–630) Tyr508Ala (S. japonicus, UniProt B6JV84 301-630, Tyr508 substituted by Ala)
T5 construct: Tup11, S. japonicus, WD40 domain, amino acids 301-630
T5 sequence (looked up): T1 sequence (looked up) with Y208A, A301I

B1: C-terminal region of S. pombe Fep1 (amino acids 319–564) (domain or fragment, UniProt Q10134 319-564, looked up)
chain: AAGEPDNNGKVYYSYGPTQEQSILPLPENKHEGLPPYQNEYVPNGIRANQVVYPGQLVAVGNDSSKQLSESTTSNTDNNGVATANQSNPLGMKFHLPPILPVGESVCLPPRTSAKPRIAEGIASLLNPEEPPSNSDKQPSMSNGPKSEVSPSQSQQAPLIQSSTSPVSLQFPPEVQGSNVDKRNYALNVLSQLRSQHDLMIQELHNLNQHIQQIDEWLRSSDNENMASEHIKSSTPAVVASGALQT
notes: Fep1, GATA-factor, S. pombe, C-terminal region, amino acids 319-564
binding result [1]: binds
reduction of binding free energy against wild type [2]: ~1.9 kcal/mol
binding result [3]: binds
reduction of binding free energy against wild type [4]: ~1.7 kcal/mol
binding result [5]: binds
